Test results: US20230333108, “APTAMER-BASED POINT-OF-CARE ASSAY DEVICES AND METHODS” (The Regents of the University of California, published 2023)

Key:
[1] = target: SARS-CoV-2 spike (S) protein (SARS-CoV-2, UniProt P0DTC2 P0DTC2:14-1213); assay: competition; conditions: tags: Sino Biological; label: 5'-biotin
[2] = target: SARS-CoV-2 nucleocapsid (N) protein (SARS-CoV-2, UniProt P0DTC9 P0DTC9:1-419); assay: competition; conditions: tags: Sino Biological; label: 5'-biotin

Binder | binding result [1] | binding result [2]
S-aptamer (anti-S protein aptamer) (ssDNA) DNA: TTTTTTCAGCACCGACCTTGTGCTTTGGGAGTGCTGGTCCAAGGGCGTTAATGGACA | binds | –
N-aptamer (anti-N protein aptamer) (ssDNA) DNA: TTTTTTGCAATGGTACGGTACTTCCGGATGCGGAAACTGGCTAATTGGTGAGGCTGGGGCGGTCGTGCAGCAAAAGTGCACGCTACTTTGCTAA | – | binds
